Assay [1] deals with T1, human CAT1 (cationic amino acid transporter-1, SLC7A1) (human, UniProt P30825 1-629).
T1 construct: Endogenous on HEK293T cells or expressed from a human CAT1 vector in QT6, HEK293T or CHO cells; also called CAT1/SLC7A1; Hu-CAT1
The experiment in a line: radiolabeled arginine uptake in HEK293T cells expressing BLV.RBD rFc.

Assay [2] concerns the target T1, human CAT1 (cationic amino acid …).

T1 sequence (P30825 whole entry): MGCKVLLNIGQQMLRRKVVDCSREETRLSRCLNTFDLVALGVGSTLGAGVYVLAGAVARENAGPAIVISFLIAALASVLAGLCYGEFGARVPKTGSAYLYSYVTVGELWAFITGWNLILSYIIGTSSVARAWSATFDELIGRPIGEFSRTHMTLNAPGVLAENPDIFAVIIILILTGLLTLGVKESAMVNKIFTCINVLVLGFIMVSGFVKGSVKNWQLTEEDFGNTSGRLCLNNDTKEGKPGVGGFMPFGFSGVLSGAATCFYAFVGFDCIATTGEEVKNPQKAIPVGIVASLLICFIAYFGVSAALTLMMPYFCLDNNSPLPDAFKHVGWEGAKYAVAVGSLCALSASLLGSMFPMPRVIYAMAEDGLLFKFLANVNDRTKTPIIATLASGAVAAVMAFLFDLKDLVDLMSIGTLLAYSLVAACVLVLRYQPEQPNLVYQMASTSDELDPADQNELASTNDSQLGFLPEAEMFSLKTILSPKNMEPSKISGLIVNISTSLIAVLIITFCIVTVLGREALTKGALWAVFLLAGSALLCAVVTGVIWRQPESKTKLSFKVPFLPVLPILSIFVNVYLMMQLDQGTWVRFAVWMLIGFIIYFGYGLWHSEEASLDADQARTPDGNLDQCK

B1: BLV.RBD fused to a rabbit Fc (rFc) tag, expressed from pCSI expression vector (Fc fusion)
chain: WRCSLSLGNQQWMTTYNQEAKFFISIDQILEAHNQSPFCPRSPRYTLDFVNGYPKIYWPPPQGRRRFGARAMVTYDCEPRCPYVGADHFDCPHWDNASQADQGSFYVNHQTLFLHLKQCHGIFTLTWEIWGYDPLITFSLHKIPAPPQGSAPSTCSKPTCPPPELLGGPSVFIFPPKPKDTLMISRTPEVTCVVVDVSQDDPEVQFTWYINNEQVRTARPPLREQQFDCTIRVVSTLPIAHQDWLRGKEFKCKVHNKALPAPIEKTISKARGQPLEPKVYTMGPPREELSSRSVSLTCMINGFYPSDISVEWEKNGKAEDNYKTTPAVLDSDGSYFLYSKLSVPTSEWQRGDVFTCSVMHEALHNHYTQKSISRSPGK
notes: also called pCSI BLV.RBD rFc
As for B1, the binding result in assay [1] was “binds”.

B2: BLV.RBD-mFc ligand (receptor-binding domain of the bovine leukemia virus envelope glycoprotein tagged in frame with the constant fragment of mouse … (Fc fusion)
chain: WRCSLSLGNQQWMTTYNQEAKFFISIDQILEAHNQSPFCPRSPRYTLDFVNGYPKIYWPPPQGRRRFGARAMVTYDCEPRCPYVGADHFDCPHWDNASQADQGSFYVNHQTLFLHLKQCHGIFTLTWEIWGYDPLITFSLHKIPAPPQGSVDVPRDCGCKPCICTVPEVSSVFIFPPKPKDVLTITLTPKVTCVVVDISKDDPEVQFSWFVDDVEVHTAQTQPREEQFNSTFRSVSELPIMHQDWLNGKEFKCRVNSAAFPAPIEKTISKTKGRPKAPQVYTIPPPKEQMAKDKVSLTCMITDFFPEDITVEWQWNGQPAENYKNTQPIMDTDGSYFVYSKLNVQKSNWEAGNTFTCSVLHEGLHNHHTEKSLSHSPGK
notes: Used as a 1/10 dilution, detected with anti-mouse IgG1-Alexa Fluor 488; also called BLV.RBD ligand; BLV.RBD tagged with mouse Fc (mFc)
Regarding B2, the “fold increase of binding on CAT1 overexpression against empty vector” value in assay [2] worked out at 3 fold.

The record behind these values is patent US20180335435A1 (METAFORA BIOSYSTEMS, published 2018).
